Data published in US20030170222A1.

Target: Melanocortin MC5 (human recombinant, HEK-293 cells) (human), P33032
Sequence (P33032 whole entry): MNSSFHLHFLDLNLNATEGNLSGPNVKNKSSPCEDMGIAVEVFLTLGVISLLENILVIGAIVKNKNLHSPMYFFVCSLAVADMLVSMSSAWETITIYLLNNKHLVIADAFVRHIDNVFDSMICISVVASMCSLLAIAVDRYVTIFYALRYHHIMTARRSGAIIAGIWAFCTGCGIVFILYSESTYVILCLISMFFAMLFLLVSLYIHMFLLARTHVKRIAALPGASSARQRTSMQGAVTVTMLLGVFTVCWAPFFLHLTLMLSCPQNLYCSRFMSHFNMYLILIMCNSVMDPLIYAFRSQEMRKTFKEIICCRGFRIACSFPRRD

B1: β-Ge14.1-D1 (peptide)
peptide: SLWCVCPFRVCPPCH
modifications: not checked
% Inh.: 71%
IC50: 294 nM
Ki: 276 nM
